{
  "source": "a protein production outcome set (Wang et al. 2014)",
  "data": [
    {"assay": "label from the status in PepcDB records", "values": [
      {"sequence": "MSIWWLNNTVRVAREKEAVENLATETEWFVLDRWEIHDYKFAAIGSIVAHGATYPIRLVYPDNFPLVPAWVEPQDPEAKWSYHQYGKGGALCLELRPDNWTSRANGADVLRSAYGLLNLENPLGDGEKGKVTSAHNVGEIQKYNWGESPVFIGQECLTRLLSGDIQDVNALRWSASDKVWPIFLSDAVDRQGVQRPPSADLNTWRLHVPVALVSGKVPDGLPSERSTFISTLWESSPVEGEVNFVTVFIEDDGINVFHVLSDNAYHRKVYVLPPETGLRSGRAPSAQAKKVAVVGAGSVGSKVAEMLLRSGIDTLRIFDGDVFLPGNLERHVLDWRDVGYHKVHGLKRRLLHIVPGADIMTIDQNLNWQKSARTNALHFDLITACDIIVDASGDPATSMLLGALAFENKKPFVSVEVFEGGIGALVAPSVPERNAAYTLGREALLNWTDEKGRVVPLSAGDRAYEAISDDGDIIVADDAAISMAASHAARVVLDILDDKLDDFRWLLIGFRKEWAFDMHGHVIALDVGGPSEWNNNTEDADAQKFVIEIAGELLDVLKAFTQ", "protein production": "failed"},
      {"sequence": "MSIYMIGLIRHSETKVFNKALIQGSLIAYIVFMLFAWGGEAIFSKYLNVRFEAFQIFGGLIFLVIGYRYVFQGADTIGEMRGAPEHLAGTIAMPFMIGPGTISAAVVTGIEMSIGAAALVIGFTMFLTCSILILMKFSHDHLRYKHAKYIDRYFDIVGRLSALLIGTIAVDMIINGVTGLIHKV", "protein production": "failed"},
      {"sequence": "MSKAIVLDSHLKEKGSVELPKRYESINSHNLYLYVKHYLSSARANTAKSKNRAEVSGGGRKPWAQKGGGRARAGSITSPVFVGGGVSHGATNNRNYNLKINKKQKRLALEYALEEKAQANKLFVVEKIAIKGVVEDNKRKHLTKEANQMFQALEQRDTLFVCMNMDEYTELAFSNLKKCLIVDVSELNAYLLAAFSSVVMEEAAFQHVVQDKTEE", "protein production": "failed"},
      {"sequence": "MSKDVKPTRKNLMAIEDRIELSERGHDTLEKKRDGLIMEFMDILDQAQDVRSDLDENYERAQRNINMARAMEGDVAVRGAAAALKEHPEITTQSKNIMGVVVPQIESTKVKKSLDQRGYGLVGTSARIDEAADAYEELLETIILAAEVETAMKKMLDEIEKTKRRVNALEFKLLPELHEAQEYIEQKLEEQEREEIFRMKKIKAKKEEEEEENPVADTESAAEAAVTEAGQ", "protein production": "failed"},
      {"sequence": "MSKEIFDTFKFKCGAELKNRVLMAPMTIQAGYFDGSVTSEMIDYYQFRAGDASAIIVESCFVENHGRGFPGAIGIDNDDKIPGLKRLAEAIQAKGSKAILQLYHAGRMANPKFNEGEQPISASPIAALRPDAVPPREMTHAQINQMIDDFGEATRRAIEAGFDGVEIHGANTYLLQQFFSPHSNRRQDSWGGSREKRTRFPIEVLTKVQHVVAEKEASHFIIGYRFSPEEIEEPGIRFEDTMFLLNTLAEYEPDYFHISANSYQRTSIVNQEDTEPLINKYIKMQSAQLAKIPLIGVGSIAQRQDAEHALELGYDLLSVGKAYLVEPQWTDKISQNEEVEQFVDIHDQKVLHIPSPLWKVMDFMILDKEEEHRKYEKLKALQNKKVKFNKGTYHVYAKGHNGNLPMKVQLSEDKIVSIEVDDSGESEGIANPVFERLPQDIINGQTLNVDVISGATVTSEGIVQGIADAIEQAGEDPDILRARPKPVVQWSDEVVEETTDVVVIGTGGAGLSAAATVLDEGKEVIMLEKFAAIGGNTIRTGGQVNAAEPKWQNAFPALAGEKETLIQLLNHDENDIDEAYIEDFNTLKRQIKDYLENSSNEDEYLFDSVELHRIQTYLGGKRKDRNNVEISGDYDLVKTLTDNVLESVYWLKDKGVHFDRSFVDMPVGALWRRGHKPMKAQGLEYIENLGDYVKHNHGRIFTETTAEKLIKEGNQVVGIEARKANGAKVKIHTRHGVVLATGGFGANTKMLQQYNTYWDNIPDDIKTTNSPAITGDGIRLGVQAGADIVGMGFSQMMPISDPKTGALFTGLIVTPSNFVFVNKEGQRFVNEFESRDVLSKAALEQKDGIFYIIADANIKALAMNTTEDKINQELEDGTLVKADTLEALAQKLNIDTTTFVNTIERYNTFVEQGQDEDFNKNAFDLKIEKAPFYATPRKPAIHHTMGGLKINTHAQVIDVEGHIIEGLYAAGEVAGGIHAGNRLGGNALADIFTFGRIAGQSAVTK", "protein production": "failed"},
      {"sequence": "MSKFAMVFPGQGSQSLGMLADLAAQFPIVEATFSEASSVLGYDLWQLVQQGPAEELNKTWQTQPALLTASVAIWRIWQHQGGKLPSLMAGHSLGEYSALVCAGVLDFKQAVSLVELRGKLMQEAVPEGTGAMYAIIGLDNESIAKACEESAQGQVVSPVNFNSPGQVVIAGNKDAVERAGAACKAAGAKRALPLPVSVPSHCALMKPAADKLAVALEKIDFQEPLFPVVNNVDVKAEVSPVAIRSALVRQLYNPVRWTESVEFIAAEGVELLLEIGPGKVLTGLTKRIVDSLAAAAVNDVVTLNSALEH", "protein production": "failed"},
      {"sequence": "MSKFTIHTIETAPERVKETLRTVKKDNGGYIPNLIGLLANAPTALETYRTVGEINRRNSLTPTEREVVQITAAVTNGCAFCVAGHTAFSIKQIQMAPDLLEALRNATPIDDDPKLDTLAKFTIAVINTKGRVGDEAFADFLEVGYTPENALDVVLGVSLASLCNYANNMADTPINPELQQYVK", "protein production": "not failed"},
      {"sequence": "MSKGTTSQDAPFGTLLGYAPGGVAIYSSDYSSLDPQEYEDDAVFRSYIDDEYMGHKWQCVEFARRFLFLNYGVVFTDVGMAWEIFSLRFLREVVNDNILPLQAFPNGSPRAPVAGALLIWDKGGEFKDTGHVAIITQLHGNKVRIAEQNVIHSPLPQGQQWTRELEMVVENGCYTLKDTFDDTTILGWMIQTEDTEYSLPQPEIAGELLKISGARLENKGQFDGKWLDEKDPLQNAYVQANGQVINQDPYHYYTITESAEQELIKATNELHLMYLHATDKVLKDDNLLALFDIPKILWPRLRLSWQRRRHHMITGRMDFCMDERGLKVYEYNADSASCHTEAGLILERWAEQGYKGNGFNPAEGLINELAGAWKHSRARPFVHIMQDKDIEENYHAQFMEQALHQAGFETRILRGLDELGWDAAGQLIDGEGRLVNCVWKTWAWETAFDQIREVSDREFAAVPIRTGHPQNEVRLIDVLLRPEVLVFEPLWTVIPGNKAILPILWSLFPHHRYLLDTDFTVNDELVKTGYAVKPIAGRCGSNIDLVSHHEEVLDKTSGKFAEQKNIYQQLWCLPKVDGKYIQVCTFTVGGNYGGTCLRGDESLVIKKESDIEPLIVVKK", "protein production": "failed"},
      {"sequence": "MSKIDWDSPEGAERYDRNCDHQFQKGHVLIEMMGIKKGDFVLDVGCGTGRQALNVAGIIGPAGKLTGIDPSSYRIELARKKFEGDSSGNVRFLVRQAENLQDIPDNSINHAYFCSSFHWVDDKKTALNEIFRVLRPGGKVGMTTLDRNSPNTMKALIDPILAKFGIERRHEWHRGMKKVTAPELHDLLSGAGFTSISIEPRAVPRKYNSPEEFLQHPEEKDSSRGILRDISNETLEKLRQEITEEFRKAQTPEDIGFGNITLFAIATKAQEGI", "protein production": "failed"},
      {"sequence": "MSKKETDLGRDSIGKLLFKLAMPAIIAQLVNVLYNIVDRMFIGRLQSGDMAMAGVGVAFPIIMIVAAFSGLVGMGGAPLAAIKMGEKKKEDAEEIMTNSFSALIGLALFLTVFFFIFKEPILWAFGASDATIGYALDYLGIYLIGTIFVQIALGMNSFINTQGFAKVGMITVMVGAVINIVLDPILIFGFNMGVKGAALATIIGQCASAIWVLYFLFEKQSILRIRKKFLKPKLKILFSIMALGVSPFIMQATESLVIISMNNNLLKYGGDLAVGAMTIMSSVMQIILLPLMGLSQGAQPIISYNYGANKVYRVKKAFKLLLVSSMVFTTIMWSALMMLPDVFVKIFNSNNPQLMEITSWSIKIYFAGILLFGAQVACQQTFLALGQAKISLILALLRKIVLLIPFIYVLPMVFENKLMGVLMAEPFADIIAALSTVTCFIVFYKKHLSQGLEEEIKVNS", "protein production": "failed"},
      {"sequence": "MSKKIRNTEVDHLFDAILTLENKEECYTFFEDVCTVNELLSISQRYEVAKMLREGKTYLDISNATGASTATISRVNRSLNYGNDGYDMVLERVLKKDE", "protein production": "not failed"},
      {"sequence": "MSKKKETKLSKYIKVPIKMLVKARDMYIRSMNQFSSHDLPGSGMSFGIPVCNVSTLPRSFSASHSQYSVRAEDDRVAKLVRAASARNATIDGARHEPSKLRKAKSSRSCGGHRGFEKIDEASPLISFGSKHKMFQRSKSYSVVKYLGS", "protein production": "failed"},
      {"sequence": "MSKNDKPLVSIGIPTYNRAESLKRAINSAVNQTYTNLEIIISDNCSIDETQQLCEELCKLDSRITYIRQAKNFGATNNFSFVLKKATGEYFMWLADDDWISENYIYDCQFFLQNNHQYLLCSGIAKYYLGDDIRMGENICLEENSPIERVKEYFNKVQDNGIFYGLYRKEAVLKLRIPSCFGGDWVFIACILLLGKATTLNTCVIHRVFQEKSTEDYAKEINSKYVLEKSYPYAFICFHFFSEIERTLILQNILTKQQKILLFLDILLTLMRRFGHLYSIEYGWLNIFCIRKKLISLLKIIIRNFRQSCLYFIDSLRTFIYNLKYTPQMYQLYASSKQKNSDLKKLAFFSPVKPIKSGISDYSEELIRFLCKKYQIFVFIDDSYTEKQCPNIENTFYLNHRLFPITSKILGIKKIVYQIGNNYYHNYMFKYINKNHGIVVLHDGIHMSGNVLQQPERHKIVVHSLSASTQVKSKYPNLSVNVISLLMSLPEENLKQDKNSLRHELNIDINTFVFGVFGIISEPKMVYELLLAFCHSFVQNENVAFLMVGYEIADSRVLNFLRANEDDKRLVCKLGVSMEDLYKFIKVTDACFNLRSTSRGETSSSLLRVMSCGIPVIASDIDSFSELPSDVLLKVSQNLSQDELSSILKKIYNEKDKLKEIGKKGKSYINSFHSPSKISDIYSTLIEIE", "protein production": "failed"},
      {"sequence": "MSKQPWLGYLASVAITCTAAGLAYLLDHWLLPTSGTVLILQLAVLLIAFLTNFRAALLAVVLALLLFNFLFTEPRYSLHMTDIDEMVTAIVFIAVGVITSHLVTLFRNQKESLRQAQLRSNILLSVSHDLRTPLASVIGNLSTLQAYQERLPEQERAELLQGALDESDRLHRYIENLLQATRLQHGEIRLTHAVQDIRPVISKTLSRFASQERLLVKDNLQHAMVEVQSSLLEQALFNVIDNAMRFSGETAPVTLSLSETDKFIVIDIKDEGPGIETSKRSLVFNVFYSSREKDSGTGGTGLGLSVAKGIIDIHNGHIGIEESPDGCLVRIKLPRANITEEVS", "protein production": "failed"},
      {"sequence": "MSKRVLMVVTNHTTITDDHKTGLWLEEFAVPYLVFQEKGYDVKVASIQGGEVPLDPRSINEKDPSWAEAEAALKHTARLSKDDAHGFDAIFLPGGHGTMFDFPDNETLQYVLQQFAEDGRIIAAVCHGPSGLVNATYKDGTPIVKGKTVTSFTDEEEREVGLDVHMPFLLESTLRLRGANFVRGGKWTDFSVRDGNLITGQNPQSSRSTAEKVVAALEERE", "protein production": "not failed"},
      {"sequence": "MSKSTKVDLVFLFFTAIWGLSFPLTKNVLGYTSIFAFLSLRFTSAAVILIIIFWKKLKLINTKIILYGSLIGLMFFGSLAFQVASLRFTTSSNSSFISALSVVIVPLVSAGYYKKKIDFSCVLGVLFAVVGLFFISGGVNFKLNIGDLFSFLCAICITFQIIFIDIFCSKCDSALLSLIQVVFCAIFYNIVLFIIGTKPIVFNTQLTVSIFITGILGTAVAYTGIVFLEKFTSPTHTALIFCAEPVFATIFAMFIPNNNGSCESITINTFIGCGVILLSMVISELKIGNNIPQKIIKL", "protein production": "failed"},
      {"sequence": "MSKVALFSHVSPDGDCIGSMLGIGLALEALGKEVAMFNPDPIPRNLSFLPGVDKITQSMPDPLPETLLFVDCADLQRVQLQREDLPADAVILNLDHHISNQNFGRINWVDSQAAASGELAYALVRRLNVELTQEIAANFYTALLTDTGSFKYANTTAKTHQIAGELMELEHHHHHH", "protein production": "failed"},
      {"sequence": "MSLADISVIQSLPLSGSQAVTGRALNAGARLYFDWLNLNGGINGETIRLVARDDEQKIEQTVRNVRDMARVDNPVALLTVVGTANVEALMREGVLAEARLPLVGPATGASSMTTDPLVFPIKASYQQEIDKMITALVTIGVTRIGVLYQEDALGKEAITGVERTLKAHALAITAMASYPRNTANVGPAVDKLLAADVQAIFLGATAEPAAQFVRQYRARGGEAQLLGLSSIDPGILQKVAGLDAVRGYSLALVMPNPGKSVNPVIREFNRARAAVGAKDVDLSFRAVEGFVAAKVLAEAIRRAGPKPTREQVRHALTELRDYDVGGGFTVDFTDRSRPGSHYIELGVVGPNGLVIQEGHHHHHH", "protein production": "not failed"}
    ]}
  ]
}
